Laboratory results: paper PMC9929655 (The Journal of Cell Biology, 2023)

B1: GST-Exo84 (aa 1–326) (domain or fragment)
chain: MVEFSLKKARNNWKHVKKSASSPAKQKTPPSPAKPKQKTKKNPYSDLKDPATSYTLPTINARERSRVATSMQRRLSIHNTNYAPPTLDYSMPLPDMPNMIVPNDNVDSSHNNSSFTTENESVSSKGPSNSLNLSTADLSLNDSSYNKVPARSAMRNTVNPSGSNDPFNNSTSLRKMLANPHFNAKDFVHDKLGNASAITIDKFTSNLTDLSIQVQEEVKLNINKSYNEIMTVNNDLNVAMLELKRVRANINDLNEVLDQCTKIAEKRLQLQDQIDQERQGNFNNVESHSNSPALLPPLKAGQNGNLMRRDRSSVLILEKFWDTELD

What was measured:
Assay in all cases: pull-down
[1] = molecular target: T1, Sro7 (full length) (yeast, UniProt Q12038 1-1033)
T1 sequence: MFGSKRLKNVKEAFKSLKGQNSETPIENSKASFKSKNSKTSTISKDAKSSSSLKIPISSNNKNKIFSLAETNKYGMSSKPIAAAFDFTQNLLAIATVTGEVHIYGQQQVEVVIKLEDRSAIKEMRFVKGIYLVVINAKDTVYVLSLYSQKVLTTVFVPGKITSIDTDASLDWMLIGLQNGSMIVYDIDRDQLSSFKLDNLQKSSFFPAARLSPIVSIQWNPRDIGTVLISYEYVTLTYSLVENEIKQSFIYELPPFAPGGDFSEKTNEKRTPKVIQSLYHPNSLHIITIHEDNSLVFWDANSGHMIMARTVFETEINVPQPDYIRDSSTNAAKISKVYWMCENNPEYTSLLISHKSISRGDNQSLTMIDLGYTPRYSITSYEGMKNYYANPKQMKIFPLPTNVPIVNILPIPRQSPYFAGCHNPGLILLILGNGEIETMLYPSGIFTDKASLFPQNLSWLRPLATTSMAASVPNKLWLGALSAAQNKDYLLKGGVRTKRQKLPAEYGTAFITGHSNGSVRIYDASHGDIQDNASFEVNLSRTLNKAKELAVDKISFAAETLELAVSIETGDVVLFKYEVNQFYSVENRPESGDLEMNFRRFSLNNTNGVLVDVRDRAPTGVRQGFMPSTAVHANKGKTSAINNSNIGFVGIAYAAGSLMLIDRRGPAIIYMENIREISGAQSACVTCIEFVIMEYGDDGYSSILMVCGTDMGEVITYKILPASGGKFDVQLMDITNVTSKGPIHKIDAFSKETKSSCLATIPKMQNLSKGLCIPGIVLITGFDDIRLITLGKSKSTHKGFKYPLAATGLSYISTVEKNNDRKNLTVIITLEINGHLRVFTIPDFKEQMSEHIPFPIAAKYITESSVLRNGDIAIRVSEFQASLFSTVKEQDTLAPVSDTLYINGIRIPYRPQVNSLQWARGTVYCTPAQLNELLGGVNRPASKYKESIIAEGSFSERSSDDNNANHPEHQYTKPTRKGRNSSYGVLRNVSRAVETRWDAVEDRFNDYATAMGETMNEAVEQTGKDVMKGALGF

[2] = molecular target: B1
[3] = molecular target: His-tagged Exo84 (aa 1–326) (S. cerevisiae, UniProt P38261 1-326)

B1
binding result [1]: binds

B2: His-tagged Sro7-NT (aa 1–90) (domain or fragment)
chain: MFGSKRLKNVKEAFKSLKGQNSETPIENSKASFKSKNSKTSTISKDAKSSSSLKIPISSNNKNKIFSLAETNKYGMSSKPIAAAFDFTQN
binding result [2]: binds

B3: C-terminally tagged GST-Sro7-NT (aa 1–79) (domain or fragment)
chain: MFGSKRLKNVKEAFKSLKGQNSETPIENSKASFKSKNSKTSTISKDAKSSSSLKIPISSNNKNKIFSLAETNKYGMSSK
binding result [3]: binds
